Source: patent publication US20260029420A1, “ANTI-CB2 ANTIBODIES AND THEIR USE IN A FLOW CYTOMETRY ASSAY TO MEASURE CELL SURFACE CB2 EXPRESSION” (Hoffmann-La Roche Inc., priority 2022, published 2026)

What was measured:
pANITA3.1 hCB2 (JB175) = target: T1, pANITA3.1 hCB2 (JB175) (Homo sapiens, UniProt P34972); assay: Western blot of cell lysates; format: binding; design: key to Western Blot signal intensity: “−” no signal; “+”-“+++++” signal intensity; “+”-“+++++” signal intensity; “+”-“+++++” signal intensity; “+”-“+++++” signal intensity; “+”-“+++++” signal intensity
T1 construct: expressed in transfected cells; host or cells: HEK293
T1 sequence (P34972 with tags, fused parts or gaps): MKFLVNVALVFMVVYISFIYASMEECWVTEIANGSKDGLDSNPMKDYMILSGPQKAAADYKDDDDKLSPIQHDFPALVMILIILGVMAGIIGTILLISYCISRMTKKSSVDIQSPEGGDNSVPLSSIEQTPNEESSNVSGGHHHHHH
Protocol: (§1) The positive clones (Table 1) were further characterized by immunofluorescence (IF; Table 2), Western Blot (Table 3, 1) and Immune precipitation (Table 4, 2) on full length hCB2, hCB1, mCB2 stable-transfected CHO-cell lines in addition to the 2 pANITA constructs.
(§2) For Western blot analysis, cells were collected using enzyme free dissociation buffer (Cell dissociation buffer enzyme-free Hanks'-based, Gibco), and washed two times with PBS. To prepare cell lysate, 10^6 cells were lysed with 0.1 ml of lysis buffer (1% NP40, 10% glycerol, 2 mM EDTA, 137 mM NaCl, 20 mM TrisHCl, pH8, Protease Inhibitors) for 10 min on ice. The lysate was cleared by centrifugation at 20′000 g for 5 min. For SDS-PAGE cell lysate was resolved on precast 4-12% gradient gels (NuPAGE® Novex 4-12% Bis-Tris Gel, Invitrogen) with MES running buffer according to the manufacturer's directions. The separation of proteins was visualized by Colloidal Blue staining. The proteins were electrophoretically transferred to nitrocellulose membrane using a dry-blotting system (iBlot, Invitrogen). After blocking the membrane for 16 h in blocking buffer (5% Milk in PBS) at 4° C., specific proteins were detected with appropriate dilutions of mAbs in blocking buffer for 1 h at approximately 20° C. The membrane was then washed four times for 5 minutes in blocking buffer and incubated with horseradish peroxidase conjugated anti-mouse IgG mAb (GAM/IgG (g-chain)/HRP, Sigma, A9917) diluted 1:10'000 in blocking buffer at approximately 20° C. for 1 h. After washing again, blots were developed using ECL Western blotting detection reagents (ECL Western Blotting Substrate, Pierce) to visualize bands.
(§3) Expression of recombinant proteins in pANITA3.1 transfected cells was confirmed by Western blot analysis using anti-His tag antibodies. Cells expressing rat Glucose-dependent insulinotropic polypeptide receptor (GIPR), also a G-protein coupled receptor, were used as a negative control.

pANITA3.1 mCB2 (JB176) [1] = target: T2, pANITA3.1 mCB2 (JB176) (Mus musculus, UniProt P47936); assay: Western blot of cell lysates; format: binding; design: key to Western Blot signal intensity: “−” no signal; “+”-“+++++” signal intensity; “+”-“+++++” signal intensity; “+”-“+++++” signal intensity; “+”-“+++++” signal intensity; “+”-“+++++” signal intensity
T2 construct: expressed in transfected cells; host or cells: HEK293
T2 sequence (P47936 with tags, fused parts or gaps): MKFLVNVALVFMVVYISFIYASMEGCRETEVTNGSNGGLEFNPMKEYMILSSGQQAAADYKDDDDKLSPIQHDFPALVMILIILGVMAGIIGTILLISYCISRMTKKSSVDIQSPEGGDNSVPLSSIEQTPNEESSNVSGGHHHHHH
Protocol: as §1, §2, §3

[2] = Storage stability of antibody working dilution; format: physicochemical; conditions: working dilution (5 μg/sample), on ice
Protocol: FIG. 12: Single dose in vivo study monitoring the pharmacodynomic effect of RG7774 on CB2 expression on B-cells in Cynomolgus upon oral dosing. Three healthy cynomolgus monkeys were dosed with 100 mg/kg of the CB2 agonist RG7774. The blood draw at different time points was followed by the incubation with the anti-human CB2 antibody 1/622. The expression of CB2 on the surface of B-cells was analyzed using a lineage marker mix specific for B-cells and T-cells. The B/T-cell CB2 MFI ratio was calculated and normalized to baseline. 0 μM served as 100% baseline receptor expression. […] Due to a storage effect of the antibody working dilution (5 μg/sample) of the anti-human CB2 Ab 1/622 the 4 and 7 hours' time point have been excluded. The working dilution of this antibody is only stable for 2 hours on ice.

CHO-DUKX parental cells = assay: Flow cytometry on CHO-DUKX cells; format: binding
Excerpt: (§4) FIG. 4: Flow cytometric analysis of hCB2 antibody 1/622 in CHO-DUKX parental and CHO-DUKX_HOMSA_CNR2_Clone_90_CRE-Luc cells transfected with hCB2. For detection an F(ab)2 goat-anti Mouse IgG3 PE antibody was used. The anti-human CB2 antibody 1/622 detects the CB2 in the CHO cells transfected with hCB2 with a signal to background ratio of 10, the CHO-DUKX parental cells are negative.

[3] = target: T3, CHO-DUKX_HOMSA_CNR2_Clone_90_CRE-Luc cells transfected with hCB2 (Homo sapiens, UniProt P34972); assay: Flow cytometry on CHO-DUKX cells; format: binding; conditions: transfected vs parental untransfected CHO cells
T3 construct: expressed in transfected cells
T3 sequence (P34972 whole entry): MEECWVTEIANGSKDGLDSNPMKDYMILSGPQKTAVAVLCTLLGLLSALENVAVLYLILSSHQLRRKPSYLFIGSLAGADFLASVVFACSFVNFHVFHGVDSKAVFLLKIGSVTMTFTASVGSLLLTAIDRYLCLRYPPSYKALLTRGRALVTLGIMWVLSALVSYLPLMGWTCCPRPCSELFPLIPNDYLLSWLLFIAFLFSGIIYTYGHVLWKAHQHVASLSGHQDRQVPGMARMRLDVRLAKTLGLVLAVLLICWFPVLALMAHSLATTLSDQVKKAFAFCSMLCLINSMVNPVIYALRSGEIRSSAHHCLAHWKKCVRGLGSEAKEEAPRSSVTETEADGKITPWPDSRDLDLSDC
Excerpt: as §4

CHODukx CRE hCB1 Cl.20 = target: T4, CHODukx CRE hCB1 Cl.20 (Homo sapiens, UniProt P21554); assay: Western blot of cell lysates; format: binding; design: key to Western Blot signal intensity: “−” no signal; “+”-“+++++” signal intensity; “+”-“+++++” signal intensity; “+”-“+++++” signal intensity; “+”-“+++++” signal intensity; “+”-“+++++” signal intensity
T4 construct: expressed in transfected cells
T4 sequence (P21554 whole entry): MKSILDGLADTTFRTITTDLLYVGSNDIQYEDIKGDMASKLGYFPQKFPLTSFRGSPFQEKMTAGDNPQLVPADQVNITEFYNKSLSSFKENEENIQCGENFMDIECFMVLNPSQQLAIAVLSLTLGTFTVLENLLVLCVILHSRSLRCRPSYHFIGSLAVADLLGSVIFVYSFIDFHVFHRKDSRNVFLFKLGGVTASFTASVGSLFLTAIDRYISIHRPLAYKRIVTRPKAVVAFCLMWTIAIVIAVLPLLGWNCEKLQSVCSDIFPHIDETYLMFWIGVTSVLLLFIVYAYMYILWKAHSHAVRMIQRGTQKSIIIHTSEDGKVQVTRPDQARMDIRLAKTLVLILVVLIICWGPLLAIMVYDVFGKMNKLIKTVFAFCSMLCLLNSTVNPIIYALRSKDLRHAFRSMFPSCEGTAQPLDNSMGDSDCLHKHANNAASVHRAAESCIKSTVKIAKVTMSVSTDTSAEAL
Protocol: as §1
as §2, with “The membrane was then washed four times for 5 minutes in blocking buffer and incubated with horseradish peroxidase conjugated anti-mouse IgG mAb (GAM/IgG (g-chain)/HRP, Sigma, A9917) diluted 1:10'000 in blocking buffer at approximately 20° C. for 1 h. After washing again, blots were developed using ECL Western blotting detection reagents (ECL Western Blotting Substrate, Pierce) to visualize bands.” left out

CHODukx negative = assay: Western blot of cell lysates, negative control; format: binding; design: key: “−” no signal; “+”-“+++++” signal intensity; “+”-“+++++” signal intensity; “+”-“+++++” signal intensity; “+”-“+++++” signal intensity; “+”-“+++++” signal intensity; conditions: CHODukx negative lysate
Protocol: as §1
as §2, with “The membrane was then washed four times for 5 minutes in blocking buffer and incubated with horseradish peroxidase conjugated anti-mouse IgG mAb (GAM/IgG (g-chain)/HRP, Sigma, A9917) diluted 1:10'000 in blocking buffer at approximately 20° C. for 1 h. After washing again, blots were developed using ECL Western blotting detection reagents (ECL Western Blotting Substrate, Pierce) to visualize bands.” left out

pANITA3.1 mCB2 (JB176) [4] = target: T2, pANITA3.1 mCB2 (JB176); assay: Immunoprecipitation from whole cell lysates; format: binding; design: key to Immunoprecipitation signal intensity: “−” no signal; “+”-“+++++” signal intensity; “+”-“+++++” signal intensity; “+”-“+++++” signal intensity; “+”-“+++++” signal intensity; “+”-“+++++” signal intensity
Protocol: as §1
For immunoprecipitation (IP), whole cell lysates were incubated with the respective antibodies. IP was performed according to established protocols and subsequent western blot as described herein above.

B1: hCB2-1/622: murine IgG3 monoclonal anti-human CB2 antibody, VH SEQ ID NO: 1, VL SEQ ID NO: 2, HC SEQ ID NO: 3, LC SEQ ID NO: 4 (antibody)
heavy: EVQLQQSGPELVKPGASVKISCKTSGYTFTEYTMHWVRQSHGKSLEWIGGIDRYNGDTYYNQKFKDKATLTVDRSSSTAYMELRSLTSEDSAVYFCARNGAMDYWGQGISVTVSSATTTAPSVYPLVPGCSDTSGSSVTLGCLVKGYFPEPVTVKWNYGALSSGVRTVSSVLQSGFYSLSSLVTVPSSTWPSQTVICNVAHPASKTELIKRIEPRIPKPSTPPGSSCPPGNILGGPSVFIFPPKPKDALMISLTPKVTCVVVDVSEDDPDVHVSWFVDNKEVHTAWTQPREAQYNSTFRVVSALPIQHQDWMRGKEFKCKVNNKALPAPIERTISKPKGRAQTPQVYTIPPPREQMSKKKVSLTCLVTNFFSEAISVEWERNGELEQDYKNTPPILDSDGTYFLYSKLTVDTDSWLQGEIFTCSVVHEALHNHHTQKNLSRSPGK
light: DVVMTQTPLSLPVSLGDQASISCRSSQSLVHSNGNTYLHWFLQKPGQSPKLLIYKVSIRFSGVPDRFSGSGSGTDFTLKISRVEAEDLGVYFCSQSTHVPPLTFGAGTKLELKRADAAPTVSIFPPSSEQLTSGGASVVCFLNNFYPKDINVKWKIDGSERQNGVLNSWTDQDSKDSTYSMSSTLTLTKDEYERHNSYTCEATHKTSTSPIVKSFNRNEC
For B1, the “Western blot detection” value (pANITA3.1 hCB2 (JB175); hCB2) was “distinct band”, the “Western Blot signal intensity” value (pANITA3.1 hCB2 (JB175); pANITA3.1 hCB2 (JB175) lysate) was “+++” and the “Western blot detection” value (pANITA3.1 mCB2 (JB176) [1]; mCB2) was “no mCB2, hCB1 or rat GIPR was detected”. For the same molecule, the “Western Blot signal intensity” value (pANITA3.1 mCB2 (JB176) [1]; pANITA3.1 mCB2 (JB176) lysate) was “−”, the “stability of antibody working dilution” value [2] was 2 h and the “flow cytometric detection of CB2” value (CHO-DUKX parental cells) was “negative”. For the same molecule, the “signal to noise ratio for detection of human CB2” value [3] was “good signal to noise ratio”, the “Western Blot signal intensity” value (CHODukx CRE hCB1 Cl.20; CHODukx CRE hCB1 Cl.20 lysate) was “−” and the “Western blot detection” value (CHODukx CRE hCB1 Cl.20; hCB1) was “no mCB2, hCB1 or rat GIPR was detected”. The “Western Blot signal intensity” value (CHODukx negative) was “−”, the “immunoprecipitation cross reactivity” value (pANITA3.1 mCB2 (JB176) [4]; mCB2) was “no cross reactivity” and the Immunoprecipitation signal intensity (pANITA3.1 mCB2 (JB176) [4]; pANITA3.1 mCB2 (JB176) lysate) was “−”.
